{"source": "patent US10689421B2", "about": "“Bacteriocin-producing Paenibacillus ehimensis and application thereof” (National Pingtung University of Science and Technology, priority 2018, dated 2020)", "molecules": {"B1": {"name": "Peocin: bacteriocin; DNA starvation/stationary phase protection protein produced by Paenibacillus ehimensis NPUST-1, amino acid SEQ ID NO: 1 (protein, listed as Paenibacillus ehimensis)", "chain": "MNEQLTVLLNNQIANWSVLYVKLHNYHWYVKGPQFFTLHTKFEELYTEAALHVDALAERLLALGGKPVATMSGSLRLASVREAEGEESAERMVAALVNDFTLIIGELKSGMKYAESVQDETTGDLLLAIHSSLEKHVWMLNAFLGN"}}, "key": {"[1]": {"system": "E. coli", "test": "Antibacterial protein stability under different preservation temperature for 70 days", "format": "physicochemical", "experimental": "Place purified antibacterial protein Peocin sample in 40° C., room temperature, 4° C. and −20° C. environment respectively for 70 days. Each week during the experiment, extract samples and measure their antibacterial activity and inhibitory zone diameter using TSB agar plate containing E. coli."}, "[2]": {"system": "E. coli", "test": "Antibacterial activity of Peocin expressed in E. coli BL21 (DE3)/pET-28-peocin", "format": "cell-based", "experimental": "Add 30 μl E. coli BL21 (DE3)/pET-28-peocin bacterial liquid and 3 μl Kanamycin (100 mg/ml) to 3 ml LB culture broth and incubate for 24 hours. After incubation, add 0.5 ml medium and 50 μl Kanamycin (100 mg/ml) in 50 ml LB culture broth, incubate for 3 hours and add 50 μl 1M IPTG to induce expression of high-level production of protein. Incubate for 9 hours, measure the OD600 nm absorbance of bacterial broth, concentrate the bacterial liquid to OD600 nm=60/ml, wash with 1×PBS for once, place the bacterial broth in centrifuge and centrifuge it for 15 minutes with the speed of 1300 rpm. Remove the supernatant, add 2 ml 1×PBS and lyse by ultrasonic machine under 5 seconds on/5 seconds off cycle for 5 minutes, then again place the bacterial broth in centrifuge and centrifuge it for 20 minutes under 4° C. with the speed of 4000 rpm. Extract the supernatant and filter it using 0.45 μm syringe filter, then preserve the sample in 4° C. freezer to await for further steps. Load E. coli BL21 (DE3)/pET-28 and E. coli BL21 (DE3)/pET-28-peocin in the same SDS-PAGE to confirm that the transformed plasmid do express antibacterial protein in high-level production, then test antibacterial activity and measure inhibitory zone of E. coli BL21 (DE3)/pET-28 and E. coli BL21 (DE3)/pET-28-peocin protein sample on TSB medium containing E. coli to confirm the antibacterial ability of expressed protein."}, "[3]": {"system": "trypsin", "test": "Sensitivity of antibacterial protein Peocin to protease", "format": "physicochemical", "conditions": "trypsin 1 mg/ml, 4 hours, 37° C.", "experimental": "(§1) Evaluate sensitivity of Peocin to proteinase K and trypsin respectively. First, add 180 μl of purified antibacterial protein peocin into 1.7 ml micro-centrifuge tube, then add 20 μl of 10 mg/ml proteinase K and trypsin respectively for the final concentration of protease to be 1 mg/ml, then stand for 4 hours under 37° C. for reaction. Next, use TSB agar plate containing E. coli to measure the antibacterial activity and inhibitory zone diameter. For comparison, use PBS buffer without antibacterial protein as buffer group, and control group is purified antibacterial protein peocin without protease."}, "[4]": {"molecular_target": "proteinase K (Parengyodontium album, UniProt P06873)", "sequence (P06873 106-384)": "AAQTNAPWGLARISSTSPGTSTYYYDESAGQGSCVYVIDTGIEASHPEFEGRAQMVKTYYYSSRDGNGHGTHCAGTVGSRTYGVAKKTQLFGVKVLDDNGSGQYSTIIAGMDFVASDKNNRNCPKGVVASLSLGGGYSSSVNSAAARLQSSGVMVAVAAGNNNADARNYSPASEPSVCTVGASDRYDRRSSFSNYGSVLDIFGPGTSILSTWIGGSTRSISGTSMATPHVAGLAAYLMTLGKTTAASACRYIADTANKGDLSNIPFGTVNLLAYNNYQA", "test": "Sensitivity of antibacterial protein Peocin to protease", "format": "physicochemical", "conditions": "protease K 1 mg/ml, 4 hours, 37° C.", "experimental": "as §1"}, "[5]": {"system": "E. coli", "test": "Evaluation of antibacterial protein temperature tolerance", "format": "physicochemical", "conditions": "30, 40, 50, 60, 70, 80, 90, 100 and 121° C. for 1 hour; control 4° C.", "experimental": "Place 100 μl Peocin under 30° C., 40° C., 50° C., 60° C., 70° C., 80° C., 90° C., 100° C. and 121° C. respectively and stand for an hour, all treatment group except 121° C. group is put in the dry bath incubator, which can set to temperature 30° C.˜100° C. The 121° C. group is put in the sterilizer which can proceed wet heat sterilize at 121° C. Use Peocin stored under 4° C. as control group, and use the TSB agar plate containing E. coli to measure antibacterial activity and inhibitory zone diameter after an hour."}, "[6]": {"system": "E. coli", "test": "Evaluation of antibacterial protein pH tolerance", "format": "physicochemical", "conditions": "28° C.", "experimental": "Add the purified antibacterial substance in PBS buffer pH7.4 as control group. The experimental groups comprise pH 2, pH3, pH 4, pH 5, pH 6, pH 7, pH 8, pH 9 and pH 10 group, the buffer used for different pH treatment are Glycine-HCl buffer (pH 2.0), Citrate-phosphate Mcllvaine buffer (pH 3.0, 4.0, 5.0 and 6.0), Sodium-phosphate buffer (pH 7.0), Tris(hydroxymethyl) aminomethane buffer (pH 8.0 and 9.0) and Glycine-NaOH buffer (pH 10.0). First, add 500 μl of purified antibacterial protein in 15 ml centrifuge individually for each group, then add 2 ml of different pH buffer to change pH environment of treated antibacterial substance and stand for 4 hours under 28° C. After 4 hours, measure the antibacterial activity and inhibitory zone diameter using TSB agar plate containing E. coli."}, "[7]": {"system": "E. coli", "test": "Antibacterial activity of purified antibacterial protein (Resazurin reduction assay)", "format": "cell-based", "conditions": "compared with the unpurified culture supernatant", "experimental": "Antibacterial activity is evaluated by using Resazurin reduction assay. The Resazurin reduction assay is used to determine bacteria or cell activity, based on its reaction with mitochondria NADH dehydrogenase, which reduces the original dark blue Resazurin into pink Resorufin. Dilute the indicator bacterial strain E. coli cultured in advance to 1×10^7 CFU/ml and prepare 0.25 mg/ml Resazurin dye for following experiment. 96-well plate was divided into groups of three well as a triplication of one sample set; the total being 21 sets and every well was added with 60 μl TSB medium, 10 μl Resazurin dye, 10 μl indicator strain and 20 μl sample (total 100 μl). The aforementioned 20 μl sample is prepared by adding 0, 1, 2, . . . 20 μl of sample medium respectively, then use TSB medium to fill the total sample volume to 20 μl. Place the sample added 96-well plate in 37° C. incubation box for 12 hours and observe the results. Antibacterial unit (AU) is determined by Resazurin assay, whereas the minimum amount of sample medium required to inhibit color change is 1AU. The antibacterial activity of sampled culture in each time point is represented by how many AU there is in 1 ml of medium.\nTake 500 μl liquid bacteria from −80° C. preserved NPUST-1 strain, add it to 50 ml TSB broth culture and culture it for 24 hours under 28° C. for activation. […]"}}, "data": [{"molecule": "B1", "values": [{"measurement": "antibacterial activity remained after preservation", "setting": "[1]; 4° C.", "result": 90, "unit": "%"}, {"measurement": "antibacterial activity remained after preservation", "setting": "[1]; 40° C.", "result": 66, "unit": "%"}, {"measurement": "antibacterial activity remained after preservation", "setting": "[1]; room temperature", "result": 80, "unit": "%"}, {"measurement": "antibacterial activity remained after preservation", "setting": "[1]; −20° C.", "result": 90, "unit": "%"}, {"measurement": "antibacterial activity when expressed in E. coli", "setting": "[2]; inside E. coli BL21 (DE3)/pET-28-peocin after induction", "result": "no antibacterial activity"}, {"measurement": "antibacterial activity of recombinant protein released outside of E. coli", "setting": "[2]; supernatant of lysed E. coli BL21 (DE3)/pET-28-peocin, TSB medium containing E. coli", "result": "antibacterial effect"}, {"measurement": "antibacterial activity after protease treatment", "setting": "[3]", "result": "stable antibacterial activity"}, {"measurement": "antibacterial activity after protease treatment", "setting": "[4]", "result": "stable antibacterial activity"}, {"measurement": "antibacterial activity after temperature treatment", "setting": "[5]", "result": "maintain original antibacterial activity"}, {"measurement": "antibacterial activity remained", "setting": "[6]; pH2 for 4 hours", "result": 87, "unit": "%"}, {"measurement": "antibacterial activity after pH treatment", "setting": "[6]; pH 3~10 for 4 hours", "result": "remain stable"}, {"measurement": "antibacterial activity after preliminary purification", "setting": "[7]", "result": "significantly higher"}]}]}
